Numbering of substitutions follows the chain as printed.
B1: G1: single-mutation soybean EPSPS mutant, SEQ ID NO: 20, only mutation K98(85)T (protein)
chain: MAAAEKPSTAPEIVLEPIKDISGTITLPGSKSLSNRILLLAALSEGTTVVDNLLYSEDIHYMLGALRTLGLRVEDDQTTKQAIVEGCGGLFPTIKESTDEINLFLGNAGTAMRPLTAAVVAAGGNASYVLDGVPRMRERPIGDLVAGLKQLGADVDCFLGTNCPPVRVNGKGGLPGGKVKLSGSVSSQYLTALLMAAPLALGDVEIEIVDKLISVPYVEMTLKLMERFGVSVEHSGDWDKFLVHGGQKYKSPGNAFVEGDASSASYFLAGAAVTGGTITVNGCGTSSLQGDVKFAEVLEKMGAKVTWSENSVTVTGPPQDSSGQKVLQGIDVNMNKMPDVAMTLAVVALFANGQTTIRDVASWRVKETERMIAICTELRKLGATVEEGPDYCVITPPEKLNVTAIDTYDDHRMAMAFSLAACGDVPVTIKDPGCTRKTFPDYFEVLERFTRH
modifications: Glycine max EPSPS mutant with mutation K98(85)T
B2: G2: single-mutation soybean EPSPS mutant, SEQ ID NO: 22, only mutation P114(101)S but no K98(85)T (protein)
chain: B1 chain with T98K, P114S
modifications: Glycine max EPSPS mutant with mutation P114(101)S
B3: G3: soybean EPSPS mutant, SEQ ID NO: 24, two mutations K98(85)T and P114(101)S (protein)
chain: B1 chain with P114S
modifications: Glycine max EPSPS mutant with mutations K98(85)T and P114(101)S

What was measured:
[1] = test system: double knockout E. coli; experiment: growth of E. coli transformed by genes encoding soybean EPSPS (wild type and mutants) in culture media containing different glyphosate concentrations (Example 7, FIG. 3); assay type: cell-based
[2] = test system: transgenic rice seedlings; experiment: glyphosate resistance of the EPSPS mutant in transgenic rice plants sprayed with glyphosate (Example 8, Table 1); assay type: in vivo, rice (Nipponbare); conditions: for glyphosate resistance / survival of transformed rice seedlings (in words): 2× glyphosate dosage; for glyphosate resistance of transformed rice seedlings (in words): glyphosate sprayed at the 1× dosage
Text: A method for detecting the glyphosate resistance of the G1 soybean EPSPS mutant (SEQ ID NO: 20), G2 soybean EPSPS mutant (SEQ ID NO: 22) and G3 soybean EPSPS mutant (SEQ ID NO: 24) provided in Example 7, the R1 rice EPSPS mutant (SEQ ID NO: 4) provided in Example 5, and the Z1 maize EPSPS mutant (SEQ ID NO: 12) provided in Example 6 in the transgenic rice is as follows:
The plasmids (containing the EPSPS mutant gene) of the monoclonal resistant bacteria of pADV5-EPSPS in Examples 1-7 were extracted by a conventional method, followed by double enzyme digestion by Pac1 and BstEII, the small fragments were collected, and then the small fragments were ligated, using T4 DNA ligase, to the pGVP1 vectors that had undergone the same double enzyme digestion, to obtain a pGVP1-EPSPS vector having a structure as shown in FIG. 8.
In the present example, the glyphosate resistance of the EPSPS mutant in transgenic rice plants were verified. An experiment method is as follows:
The transgenic rice seedlings transplanted were uniformly arranged in a same experiment area (preventing leaves from overlapping). The areas occupied by the experiment groups and the control group were calculated, and according to the areas, glyphosate was sprayed at a 1× dosage of 1060 g/hectare (0.106 g/m^2). 2× dosage was 2120 g/hectare, 5× dosage was 5300 g/hectare, and 20× dosage was 21200 g/hectare.
Commercially available Roundup® 41% ammonium glyphosate was used. Roundup® ammonium glyphosate with corresponding volumes was taken according to the above sprayed concentrations, then diluted with 20 times of volume of water, and then uniformly sprayed on the plants in the experiment groups and the control group. After leaf surfaces were dry, the plants were moved into greenhouse or outdoor to cultivate.
After the glyphosate was sprayed at the 1× dosage, growth states of the plants in each group were observed and recorded on a 10th day, and glyphosate was sprayed to the survived plants at the 2× dosage. The growth states of the plants in each group were observed and recorded 10 days later, and glyphosate was sprayed to the survived plants at the 5× dosage. The growth states of the plants in each group were observed and recorded 10 days later, and glyphosate was sprayed to the survived plants at the 20× dosage. The growth states of the plants in each group were observed and recorded 10 days later, and results are shown in Table 1, wherein corresponding numbers of plants denoted by −, +, ++ and +++ are listed, and “%++&+++” is percentage of plant having medium and high glyphosate resistance to the total number of plants observed.

[3] = 1X dosage (1060 g/hectare glyphosate), recorded on 10th day
[4] = 2X dosage (2120 g/hectare) sprayed to plants surviving 1X, recorded 10 days later
[5] = 5X dosage (5300 g/hectare) sprayed to plants surviving 2X, recorded 10 days later
[6] = 20X dosage (21200 g/hectare) sprayed to plants surviving 5X, recorded 10 days later
[7] = culture media containing 20 mM glyphosate

Molecule | % ++&+++ (percentage of plant having medium and high glyphosate resistance to the total number of plants observed) [2, 3] | number of plants with resistance + (low glyphosate resistance) [2, 3] | number of plants with resistance ++ (medium glyphosate resistance) [2, 3] | number of plants with resistance +++ (high glyphosate resistance) [2, 3] | number of plants with resistance − (no glyphosate resistance) [2, 3] | % ++&+++ (percentage of plant having medium and high glyphosate resistance to the total number of plants observed) [2, 4] | number of plants with resistance + (low glyphosate resistance) [2, 4] | number of plants with resistance ++ (medium glyphosate resistance) [2, 4] | number of plants with resistance +++ (high glyphosate resistance) [2, 4] | number of plants with resistance − (no glyphosate resistance) [2, 4] | % ++&+++ (percentage of plant having medium and high glyphosate resistance to the total number of plants observed) [2, 5] | number of plants with resistance + (low glyphosate resistance) [2, 5] | number of plants with resistance ++ (medium glyphosate resistance) [2, 5] | number of plants with resistance +++ (high glyphosate resistance) [2, 5] | number of plants with resistance − (no glyphosate resistance) [2, 5] | % ++&+++ (percentage of plant having medium and high glyphosate resistance to the total number of plants observed) [2, 6] | number of plants with resistance + (low glyphosate resistance) [2, 6] | number of plants with resistance ++ (medium glyphosate resistance) [2, 6] | number of plants with resistance +++ (high glyphosate resistance) [2, 6] | number of plants with resistance − (no glyphosate resistance) [2, 6] | further results
B1 | 5.4% | 6 | 2 | 0 | 29 | 0.0% | 4 | 0 | 0 | 33 | 0.0% | 0 | 0 | 0 | 37 | 0.0% | 0 | 0 | 0 | 37 | growth of transformed E. coli ([1]; culture media containing 1 mM glyphosate): obviously superior to the control group (G0); glyphosate resistance / survival of transformed rice seedlings (in words) [2]: some of the rice seedlings transformed by G1 still survived; glyphosate resistance of transformed rice seedlings (in words) [2]: obviously superior to that of G0
B2 | 47.1% | 6 | 5 | 3 | 3 | 0.0% | 0 | 0 | 0 | 17 | 0.0% | 0 | 0 | 0 | 17 | 0.0% | 0 | 0 | 0 | 17 | growth of transformed E. coli [1, 7]: could grow; glyphosate resistance / survival of transformed rice seedlings (in words) [2]: all rice seedlings containing the soybean EPSPS mutant G2 died; glyphosate resistance of transformed rice seedlings (in words) [2]: certain resistance to glyphosate
B3 | 45.2% | 1 | 9 | 5 | 16 | 19.4% | 5 | 6 | 0 | 20 | 0.0% | 10 | 0 | 0 | 21 | 0.0% | 3 | 0 | 0 | 28 | growth of transformed E. coli [1, 7]: superior to that of Experiment Group 2 (G2); glyphosate resistance of transformed rice seedlings (in words) [2]: certain resistance to glyphosate

From patent US11591580B2, “K85 mutation-containing plant EPSPS mutant, and encoding gene and application thereof” (GEVOTO LLC, priority 2017, dated 2023)
